Assays:
purified protein [1] = substrate: O=c1ccn([C@@H]2O[C@H](CO[P@@](=O)(O)O[P@@](=O)(O)O[C@H]3O[C@H](CO)[C@@H](O)[C@H](O)[C@H]3O)[C@@H](O)[C@H]2O)c(=O)[nH]1; assay: purified protein; conditions: details in supplement Table S2
purified protein [2] = substrate: O=c1ccn([C@@H]2O[C@H](COP(=O)(O)OP(=O)(O)O[C@H]3OC[C@@H](O)[C@H](O)[C@H]3O)[C@@H](O)[C@H]2O)c(=O)[nH]1; assay: purified protein; conditions: acceptor astragaloside III (5); details in supplement Table S2

B1: AmUGT7 (Astragalus mongholicus) (protein)
chain: MESQQSHEQLNVTFLPYPTPGHMIPMIDTARLFAKHGATVTIITTHANASTFQKHIDSDISLGYPIKTQLIQFPAAQVGLPDGVENVKDGSSLELLGKISQGIFLLQGQIELLFQHLQPDCIVTDMMYPWTVESAAKLGIPRLHYYSTSYFSNCASYFVRKYRPHDSLDSDDQKFTVPCLPISIEMTPLQLPEWIRTKNPSTGGFFEAMYESEKNSYGTLYNSFHELESDYEQLNKTTMGIKSWSVGPVSAWANKDDEKKANRGHMGESGKELEWLNWLNSKQNDSVLYVSFGSLTRLPNAQLLEIAHGLEISGHNFIWVIRKNDRDEDGDNFLQEFEQRMKESKKGYIIWNWAPQLLILDQPAVGGIVTHCGWNSILESINAGLPMIAWPMFAEQFYNERLLVDVLKIGVPVGVKENKYWFNIGEETLVRREEIMKAVVLLMGSSQESKEMRLKAKKLADASKRTIEEGGHSYNNLLQLIDELKSLKISRELDKSRLDN
In the case of B1, the Km (purified protein [1]; acceptor cycloastragenol-3-O-β-D-xyloside (2)) is reported as 74.8 µM.

B2: AmUGT13 (Astragalus mongholicus) (protein)
chain: MEREAENRPLKLYFLPFLAAGHMIPLCDIAMLFASRGQDVTVITTPSNAETLLKRKSNNHLHIHTVDIPSDSPQIENITSATNIDSAISVYTAAMLLRQPVEQFLRENPPDCIVADFMYQWVSEIANTLQIPRLAFNGFPLFAVCAMNSFSAHPELFSGSVSEPFNLPDLPHPITMHARSPEGIFRFYEALLKMEVESHGLIVNSFVEIESEYVEHYERTTGHKAWHLGPASLVHASNQQKSERGHISVVSENDCVSWLNSKQPNSVVYISFGSTCRFSDNQLYEIAAGVEASGHPFIWVVLEKLEEKGSKGWLPEGFEERMKEKGMIIRGWAPQVLILDHPAIGGFLTHCGWNSVVEGVSAGVPMMTWPVQADQFYNEKLITEVQGNGVEVGAVEWGVSGYGERKIVISREKIEKAVRRVMDGGDEAEEIRRRARQLAVKAKEAVREGGSSHRNLRELIRDLKLLRDSRSAN
In the case of B2, the Km (purified protein [2]) is reported as 479.6 µM and the Km (purified protein [1]; acceptor astragaloside III (5)) is reported as 414.7 µM.

Source: PMC9939298
